{"source": "patent US20180318303A1", "about": "“METHODS FOR TREATING MYELOPROLIFERATIVE DISORDERS” (Promedior, Inc., priority 2015, published 2018)", "origin": "cited, not measured here", "settings": "in vivo"}
{"substance": "SAP: naturally occurring serum protein in mammals composed of five identical subunits, non-covalently associated in a disk-like complex", "values": [{"measurement": "physiological half-life", "result": "twenty-four"}]}
